# Test results as given in patent EP1655308B1, “Adducts of soluble ovalbumin with trivalent iron polyalcohol complexes and method to produce them” (Tedec-Meiji Farma, S.A., priority 2004, dated 2006).
# Experiment: Solubility of the lyophilised adduct at 1 %
# Format: physicochemical
# Conditions: lyophilised powder, 1 % solution
# Method: a) Iron - manitol complex: 31.5 g of FeCl3·6H2O are dissolved jointly with 7.9 g of manitol in 400 ml of water. A solution of 18 g of NaOH in 48 ml of water is added under vigorous stirring. It is heated to 95° C, letting it spontaneously cool down to ambient temperature. b) Treated ovalbumin: 37.50 g of commercial ovalbumin in powder form are dispersed under vigorous stirring in 180 ml of water. A solution of 30 g of NaOH in 550 ml of water is heated separately to 65° C. The protein dispersion is added to the alkaline solution and is digested at 65° C for 15 minutes, with the pH being subsequently adjusted to a value between 8.5 - 10 with 6M HCl. While keeping the solution at 50° C and pH 8.5 - 10, Esperase® (NOVO-NORDISK) is added in a quantity of 1 ‰ of the initial albumin (37.5 mg), proteolytically digesting it, under gentle stirring, for 2 hours at 50° C without any pH correction. Once this time has elapsed, the spontaneous pH is 8.5. The solution is heated to 80° C in order to deactivate the remaining enzymatic activity, the pH is adjusted to 10 with 10M NaOH and, when the temperature goes down to 65° C, 2 ml/l of 30 % w/v H2O2 are added. […]
substance,measurement,value
Adduct between treated ovalbumin and iron (III) - manitol complex [Example 1],1 % solubility,limpid
